# Patent US20220411483A1 (Chugai, published 2022)
# Residue numbers refer to the chain shown, from its start.
# T1: human FcγRIIb extracellular domain with C-terminal His tag (human, UniProt P31994 43-217)
# T1 construct: extracellular domain; also called FcgRIIb
# T1 sequence (looked up): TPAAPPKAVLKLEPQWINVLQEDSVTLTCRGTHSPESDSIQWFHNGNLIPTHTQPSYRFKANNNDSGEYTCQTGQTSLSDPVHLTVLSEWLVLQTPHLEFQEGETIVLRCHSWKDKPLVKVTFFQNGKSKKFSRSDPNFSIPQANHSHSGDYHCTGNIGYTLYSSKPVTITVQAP
# T2: human FcγRIIa R type extracellular domain with C-terminal His tag (human, UniProt P12318 34-217)
# T2 construct: extracellular domain; also called FcgRIIaR
# T2 sequence (looked up): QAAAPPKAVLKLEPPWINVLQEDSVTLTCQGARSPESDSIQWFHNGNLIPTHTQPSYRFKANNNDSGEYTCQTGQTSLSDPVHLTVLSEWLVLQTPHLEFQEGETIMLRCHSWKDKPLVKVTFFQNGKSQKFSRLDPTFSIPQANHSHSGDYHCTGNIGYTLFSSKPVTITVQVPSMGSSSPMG
# T3: human FcγRIIa H type extracellular domain with C-terminal His tag (human, UniProt P12318 34-217)
# T3 construct: extracellular domain; also called FcgRIIaH
# T3 sequence (looked up): T2 sequence (looked up) with R134H
# B1: IL6R-P760/IL6R-L (antibody, human IgG1, kappa)
# heavy: QVQLQESGPGLVKPSETLSLTCAVSGHSISHDHAWSWVRQPPGEGLEWIGFISYSGITNYNPSLQGRVTISRDNSKNTLYLQMNSLRAEDTAVYYCARSLARTTAMDYWGEGTLVTVSSASTKGPSVFPLAPSSKSTSGGTAALGCLVKDYFPEPVTVSWNSGALTSGVHTFPAVLQSSGLYSLSSVVTVPSSSLGTQTYICNVNHKPSNTKVDKKVEPKSCDKTHTCPPCPAPELLGDDSVFLFPPKPKDTLMISRTPEVTCVVVDVSEEDGEVKFNWYVDGVEVHNAKTKPREEQYNSTYRVVSVLTVLHQDWLNGKEYKCKVSNKGLPSSIEKTISKAKGQPREPQVYTLPPSRDELTKNQVSLTCLVKGFYPSDIAVEWESNGQPENNYKTTPPVLDSDGSFFLYSKLTVDKSRWQQGNVFSCSVMHEALHNHYTQKSLSLSP
# light: not shown
# B2: IL6R-P771/IL6R-L (antibody, human IgG1, kappa)
# heavy: B1 heavy with D239G, V266I, E270H, K324A, G329A, S332A, S333P
# light: not shown
# B3: IL6R-P770/IL6R-L (antibody, human IgG1, kappa)
# heavy: B1 heavy with D239G, V266I, E270H
# light: not shown
# B4: IL6R-P773/IL6R-L (antibody, human IgG1, kappa)
# heavy: B1 heavy with D239G, S269A, K324A, G329A, S332A, S333P
# light: not shown
# B5: IL6R-P768/IL6R-L (antibody, human IgG1, kappa)
# heavy: B1 heavy with D239G, V266I, S269A, E270H
# light: not shown
# B6: IL6R-P764/IL6R-L (antibody, human IgG1, kappa)
# heavy: B1 heavy with D239G, V266I, G329A, S332A, S333P
# light: not shown
# B7: IL6R-P775/IL6R-L (antibody, human IgG1, kappa)
# heavy: B1 heavy with D239G, E270H, K324A, G329A, S332A, S333P
# light: not shown
# B8: IL6R-P777/IL6R-L (antibody, human IgG1, kappa)
# heavy: B1 heavy with E235D, D239G, V266I, S269A, K324A, G329A, S332A, S333P
# light: not shown
# B9: IL6R-P762/IL6R-L (antibody, human IgG1, kappa)
# heavy: B1 heavy with D239G, E270H
# light: not shown
# B10: IL6R-P774/IL6R-L (antibody, human IgG1, kappa)
# heavy: B1 heavy with D239G, S269A, K324E, G329A, S332A, S333P
# light: not shown
# B11: IL6R-P761/IL6R-L (antibody, human IgG1, kappa)
# heavy: B1 heavy with E235D
# light: not shown
# B12: IL6R-P769/IL6R-L (antibody, human IgG1, kappa)
# heavy: B1 heavy with D239G, V266I, E270H, G329A, S332A, S333P
# light: not shown
# B13: IL6R-P772/IL6R-L (antibody, human IgG1, kappa)
# heavy: B1 heavy with D239G, V266I, E270H, K324E, G329A, S332A, S333P
# light: not shown
# B14: IL6R-P763/IL6R-L (antibody, human IgG1, kappa)
# heavy: B1 heavy with D239G, S269A, G329A, S332A, S333P
# light: not shown
# B15: IL6R-P765/IL6R-L (antibody, human IgG1, kappa)
# heavy: B1 heavy with D239G, V266I, S269A, E270H, G329A, S332A, S333P
# light: not shown
# B16: IL6R-P766/IL6R-L (antibody, human IgG1, kappa)
# heavy: B1 heavy with D239G, S269A
# light: not shown
# B17: IL6R-P767/IL6R-L (antibody, human IgG1, kappa)
# heavy: B1 heavy with D239G, V266I
# light: not shown
# B18: IL6R-P778/IL6R-L (antibody, human IgG1, kappa)
# heavy: B1 heavy with E235D, D239G, V266I, S269A, K324E, G329A, S332A, S333P
# light: not shown
# B19: IL6R-P776/IL6R-L (antibody, human IgG1, kappa)
# heavy: B1 heavy with D239G, E270H, K324E, G329A, S332A, S333P
# light: not shown
# Molecular target: T1, human FcγRIIb extracellular domain with …
# Assay: SPR, antibody captured, FcgR analyte
row,Binder,Kd [nM]
1,B1,190
2,B2,140
3,B3,170
4,B4,140
5,B5,170
6,B6,50
7,B7,400
8,B8,52
9,B9,550
10,B10,88
11,B11,120
12,B12,74
13,B13,97
14,B14,100
15,B15,53
16,B16,290
17,B17,120
18,B18,25
19,B19,280

# Molecular target: T4, human FcγRIa extracellular domain with C-terminal His tag (human, UniProt P12314 16-292)
# T4 construct: Whole entry named; also called FcgRIa
# T4 sequence (P12314 16-292): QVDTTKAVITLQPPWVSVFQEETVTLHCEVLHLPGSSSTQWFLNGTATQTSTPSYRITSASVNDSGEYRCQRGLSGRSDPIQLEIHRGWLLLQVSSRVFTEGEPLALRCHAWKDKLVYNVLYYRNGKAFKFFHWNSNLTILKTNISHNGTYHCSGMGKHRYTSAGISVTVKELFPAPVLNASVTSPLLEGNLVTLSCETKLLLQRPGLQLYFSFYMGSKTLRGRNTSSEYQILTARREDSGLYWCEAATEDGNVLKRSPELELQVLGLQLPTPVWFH
# Assay: SPR, antibody captured, FcgR analyte
row,Binder,Kd [nM]
1,B1,15
2,B2,14
3,B3,15
4,B4,2.1
5,B5,3.3
6,B6,3.7
7,B7,8.6
8,B8,1.6
9,B9,6.1
10,B10,1.1
11,B11,8
12,B12,12
13,B13,9.1
14,B14,0.73
15,B15,1.8
16,B16,0.97
17,B17,5.4
18,B18,0.96
19,B19,5.2

# Molecular target: T2, human FcγRIIa R type extracellular …
# Assay: SPR, antibody captured, FcgR analyte
row,Binder,Kd [nM]
1,B1,1600
2,B2,4300
3,B3,3400
4,B4,2700
5,B5,2800
6,B6,2100
7,B7,5400
8,B8,1900
9,B9,3400
10,B10,2000
11,B11,1100
12,B12,2900
13,B13,3100
14,B14,1600
15,B15,2100
16,B16,2200
17,B17,2800
18,B18,1300
19,B19,4000

# Molecular target: T3, human FcγRIIa H type extracellular …
# Assay: SPR, KD of IL6R-G1d/IL6R-L divided by KD of variant
row,Binder,Relative FcgRIIaH-binding Activity
1,B1,0.027
2,B2,0.007
3,B3,0.006
4,B4,0.006
5,B5,0.027
6,B6,0.026
7,B7,0.005
8,B8,0.008
9,B9,0.021
10,B10,0.008
11,B11,0.036
12,B12,0.007
13,B13,0.006
14,B14,0.034
15,B15,0.028
16,B16,0.025
17,B17,0.02
18,B18,0.01
19,B19,0.006

# Molecular target: T1, human FcγRIIb extracellular domain with …
# Assay: as above
row,Binder,Relative FcgRIIb-binding Activity
1,B1,11.1
2,B2,15
3,B3,12.4
4,B4,15
5,B5,12.4
6,B6,42
7,B7,5.3
8,B8,40.4
9,B9,3.8
10,B10,23.9
11,B11,17.5
12,B12,28.4
13,B13,21.6
14,B14,21
15,B15,39.6
16,B16,7.2
17,B17,17.5
18,B18,84
19,B19,7.5

# Molecular target: T5, human FcγRIIIa V type extracellular domain with C-terminal His tag (human, UniProt P08637 17-208)
# T5 construct: extracellular domain; also called FcgRIIIaV
# T5 sequence (P08637 17-208 F176V): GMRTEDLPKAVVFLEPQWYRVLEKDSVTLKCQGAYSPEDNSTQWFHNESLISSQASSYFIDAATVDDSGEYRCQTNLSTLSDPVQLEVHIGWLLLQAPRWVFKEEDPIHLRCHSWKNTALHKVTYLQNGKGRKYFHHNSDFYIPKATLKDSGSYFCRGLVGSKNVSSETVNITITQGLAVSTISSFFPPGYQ
# Assay: as above
row,Binder,Relative FcgRIIIaV-binding Activity
1,B1,0.008
2,B2,0.01
3,B3,0.007
4,B4,0.009
5,B5,0.008
6,B6,0.006
7,B7,0.007
8,B8,0.007
9,B9,0.007
10,B10,0.012
11,B11,0.008
12,B12,0.006
13,B13,0.006
14,B14,0.014
15,B15,0.008
16,B16,0.008
17,B17,0.005
18,B18,0.009
19,B19,0.01

# Molecular target: T4, human FcγRIa extracellular domain with …
# Assay: as above
row,Binder,Relative FcgRIa-binding Activity
1,B1,0.021
2,B2,0.023
3,B3,0.021
4,B4,0.152
5,B5,0.097
6,B6,0.086
7,B7,0.037
8,B8,0.2
9,B9,0.052
10,B10,0.291
11,B11,0.04
12,B12,0.027
13,B13,0.035
14,B14,0.438
15,B15,0.178
16,B16,0.33
17,B17,0.059
18,B18,0.333
19,B19,0.062

# Molecular target: T2, human FcγRIIa R type extracellular …
# Assay: as above
row,Binder,Relative FcgRIIaR-binding Activity
1,B1,0.69
2,B2,0.26
3,B3,0.32
4,B4,0.41
5,B5,0.39
6,B6,0.52
7,B7,0.2
8,B8,0.58
9,B9,0.32
10,B10,0.55
11,B11,1
12,B12,0.38
13,B13,0.35
14,B14,0.69
15,B15,0.52
16,B16,0.5
17,B17,0.39
18,B18,0.85
19,B19,0.28
